The values below come from doi:10.1101/2022.10.28.512841 (bioRxiv, 2022).

This series concerns the molecule itself. Briefly: SEC-SAXS. In general terms: Size exclusion chromatography separates by hydrodynamic size, large species first.

B1: gated spinach aquaporin SoPIP2;1 (natural protein)
chain: MSKEVSEEAQAHQHGKDYVDPPPAPFFDLGELKLWSFWRAAIAEFIATLLFLYITVATVIGHSKETVVCGSVGLLGIAWAFGGMIFVLVYCTAGISGGHINPAVTFGLFLARKVSLLRALVYMIAQCLGAICGVGLVKAFMKGPYNQFGGGANSVALGYNKGTALGAEIIGTFVLVYTVFSATDPKRSARDSHVPILAPLPIGFAVFMVHLATIPITGTGINPARSFGAAVIFNSNKVWDDQWIFWVGPFIGAAVAAAYHQYVLRAAAIKALGSFRSNPTN
As for B1, the binding result was “binds”.
